{"source": "paper PMC4842275", "target": "HIV-1 capsid of the wild type HIV-1GFP vector (HIV-1)"}
{"substance": "engineered human TRIM5alpha fused with CypA at position S322 (T5Cyp) (from UniProt Q9C035 1-322)", "values": [{"measurement": "restriction of HIV-1GFP infection (GFP+ cells by FACS 48 h after infection) in Jurkat T5Cyp cells compared to H126Q cells", "value": 10, "unit": "fold"}]}
